Measured values taken from patent US20140141003A1 (Bayer, published 2014).
Like-named read-outs stand apart in the source and are kept apart here.

T1: extracellular domain of human PRLR (soluble, monomeric) (human, UniProt P16471 25-234)
T1 construct: also called Human ECD PRLR; ECD-PRLR
T1 sequence: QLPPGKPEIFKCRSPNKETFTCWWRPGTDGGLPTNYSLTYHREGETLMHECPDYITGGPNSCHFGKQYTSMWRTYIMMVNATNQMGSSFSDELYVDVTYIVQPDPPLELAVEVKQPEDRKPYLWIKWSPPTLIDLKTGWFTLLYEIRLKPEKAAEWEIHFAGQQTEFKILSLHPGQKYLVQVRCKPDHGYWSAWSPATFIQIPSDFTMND

T2: rhesus monkey PRLR expressed on cells (rhesus monkey, UniProt F7HIU9 25-619)
T2 construct: whole, on cells; also called rhesus PRLR; BaF3-rhesus PRLR
T2 sequence: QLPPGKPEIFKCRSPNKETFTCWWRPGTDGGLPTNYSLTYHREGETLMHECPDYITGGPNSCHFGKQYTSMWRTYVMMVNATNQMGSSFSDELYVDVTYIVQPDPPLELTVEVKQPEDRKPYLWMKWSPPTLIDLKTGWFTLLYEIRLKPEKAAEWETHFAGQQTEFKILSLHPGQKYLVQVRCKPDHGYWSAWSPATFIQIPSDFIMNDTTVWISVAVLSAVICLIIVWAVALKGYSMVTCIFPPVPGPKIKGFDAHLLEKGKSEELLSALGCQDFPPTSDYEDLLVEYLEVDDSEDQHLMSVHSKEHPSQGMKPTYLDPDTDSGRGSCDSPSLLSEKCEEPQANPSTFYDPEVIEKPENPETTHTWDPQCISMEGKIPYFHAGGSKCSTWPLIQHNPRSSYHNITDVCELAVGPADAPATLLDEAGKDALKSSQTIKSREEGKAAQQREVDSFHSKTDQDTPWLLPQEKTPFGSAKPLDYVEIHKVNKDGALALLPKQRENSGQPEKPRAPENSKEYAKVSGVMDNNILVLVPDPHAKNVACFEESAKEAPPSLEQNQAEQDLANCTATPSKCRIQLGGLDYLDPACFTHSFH

T3: extracellular domain of murine PRLR (soluble, monomeric) (mouse, UniProt Q08501 20-229)
T3 construct: Expressed in HEK293 cells; also called Murine ECD PRLR; Mouse PRLR
T3 sequence: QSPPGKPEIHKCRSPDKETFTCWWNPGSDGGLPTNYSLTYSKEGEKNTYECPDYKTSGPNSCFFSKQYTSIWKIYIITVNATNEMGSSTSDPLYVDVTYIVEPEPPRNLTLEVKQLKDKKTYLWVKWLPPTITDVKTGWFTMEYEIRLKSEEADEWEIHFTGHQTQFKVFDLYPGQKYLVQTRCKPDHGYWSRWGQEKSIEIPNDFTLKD

T4: extracellular domain of rhesus and cynomolgus monkey PRLR (Fc-His removed by Factor Xa digestion) (rhesus and cynomolgus monkey, UniProt P16471 25-234 (human entry))
T4 construct: the fusion part was removed by Factor Xa before SPR; also called Rhesus/Cynomolgus PRLR; Rhesus and cynomolgus monkey ECD PRLR
T4 chain: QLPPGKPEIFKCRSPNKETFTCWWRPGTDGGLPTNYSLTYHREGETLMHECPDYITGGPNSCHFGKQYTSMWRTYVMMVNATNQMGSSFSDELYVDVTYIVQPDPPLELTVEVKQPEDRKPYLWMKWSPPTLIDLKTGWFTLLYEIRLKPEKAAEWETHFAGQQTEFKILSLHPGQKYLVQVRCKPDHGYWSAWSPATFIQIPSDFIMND


Key:
[1] = target: T1, extracellular domain of human PRLR …; test: SPR: ECD-PRLR captured by immobilized Mat3 or HE06642, human PRL passed over
[2] = target: human PRLR expressed on cells (human) (UniProt P16471); test: flow cytometry on human T47D breast cancer cells (natural PRLR), IgG1 format
[3] = target: human PRLR expressed on cells (human) (UniProt P16471); test: flow cytometry on BaF3-human PRLR cells, IgG1 format
[4] = target: human PRLR expressed on cells (human) (UniProt P16471); test: flow cytometry on HEK293-human PRLR cells, IgG1 format
[5] = target: human PRLR expressed on cells (human) (UniProt P16471); test: cell-based or functional assay
[6] = target: murine PRLR expressed on cells (mouse) (UniProt Q08501); test: cell-based or functional assay
[7] = target: T2, rhesus monkey PRLR expressed on cells; test: flow cytometry on BaF3-rhesus PRLR cells, IgG1 format
[8] = target: T2, rhesus monkey PRLR expressed on cells; test: cell-based or functional assay
[9] = target: T1, extracellular domain of human PRLR …; test: SPR (Biacore T100), antibody captured via anti-human IgG Fc, monovalent ECD as analyte, Example 13
Procedure: (§1) Antibodies were immobilized onto a CM5 sensor chip through an indirect capturing reagent, anti-human IgG Fc. […] Approximately 5000 RU monoclonal mouse anti-human IgG (Fc) antibody were immobilized per cell. Each test antibody was injected at a concentration of 5 μg/ml at 10 μl/min for 10 sec to reach a capturing level of approximately 200 to 600 RU. […] Sensograms were generated after in-line reference cell correction followed by buffer sample subtraction. The dissociation equilibrium constant (KD) was calculated based on the ratio of association (kon) and dissociation rated (koff=kd) constants, obtained by fitting sensograms with a first order 1:1 binding model using BiaEvaluation Software (see Table 7).

[10] = target: T3, extracellular domain of murine PRLR …; test: as above
Procedure: as §1

[11] = target: T4, extracellular domain of rhesus and …; test: as above
Procedure: as §1

[12] = target: murine PRLR expressed on cells (mouse) (UniProt Q08501); test: flow cytometry on BaF3-mouse PRLR cells, IgG1 format
[13] = target: murine PRLR expressed on cells (mouse) (UniProt Q08501); test: flow cytometry on HEK293-murine PRLR cells, IgG1 format
[14] = target: human PRLR expressed on cells (human) (UniProt P16471); test: cell-based or functional assay; remark: listed apart in the source
[15] = target: murine PRLR expressed on cells (mouse) (UniProt Q08501); test: cell-based or functional assay; remark: listed apart in the source
[16] = target: T1, extracellular domain of human PRLR …; test: SPR (Biacore T100), antibody captured via anti-human IgG Fc, monovalent ECD as analyte, Example 10
Procedure: (§2) Antibodies were immobilized onto a CM5 sensor chip through an indirect capturing reagent, anti-human IgG Fc. […] Approximately 5000 RU monoclonal mouse anti-human IgG (Fc) antibody were immobilized per cell. […] Sensograms were generated after in-line reference cell correction followed by buffer sample subtraction. The dissociation equilibrium constant (KD) was calculated based on the ratio of association (kon) and dissociation rated (koff=kd) constants, obtained by fitting sensograms with a first order 1:1 binding model using BiaEvaluation Software.

[17] = target: T3, extracellular domain of murine PRLR …; test: as above
Procedure: as §2

[18] = target: T4, extracellular domain of rhesus and …; test: as above
Procedure: as §2

[19] = target: T2, rhesus monkey PRLR expressed on cells; test: flow cytometry on Ba/F cells expressing rhesus monkey PRLR, Example 9
Procedure: The cells were harvested, centrifuged and resuspended at approximately 2×10⁶ cells/ml in 1×PBS containing 3% FBS and 0.05% sodium azide (FACS buffer). […] For secondary antibody and autofluorescence controls, 50 μl FACS buffer was added to appropriate wells. 50 μl of cell suspension was added to each sample well. Samples were incubated at 4° C. for one hour, washed twice with cold FRCS buffer and resuspended in FACS buffer containing PE-conjugated goat anti-human IgG at a 1:100 dilution. Following a 30 min incubation at 4° C., cells were washed twice with cold FACS buffer, resuspended in FACS buffer containing 1 mg/ml propidium iodide (Invitrogen, San Diego, Calif.) and analyzed by flow cytometry.

[20] = target: human PRLR expressed on cells (human) (UniProt P16471); test: flow cytometry on HEK293 cells expressing human PRLR, Example 9

| Binder | EC50 [2] | EC50 [3] | EC50 [4] | EC50 [7] | IC50, inhibition of prolactin-induced proliferation of BaF3 cells stably transfected with the rhesus prolactin receptor [8] | Kd [9] | koff [9] | Kd [10] | koff [10] | Kd [11] | koff [11] | further results |
| --- | --- | --- | --- | --- | --- | --- | --- | --- | --- | --- | --- | --- |
| human prolactin (ligand, UniProt P01236 29-227, looked up, also called PRL; Human PRL) LPICPGGAARCQVTLRDLFDRAVVLSHYIHNLSSEMFSEFDKRYTHGRGFITKAINSCHTSSLATPEDKEQAQQMNQKDFLSLIVSILRSWNEPLYHLVTEVRGMQEAPEAILSKAVEIEEQTKRLLEGMELIVSQVHPETKENEIYPVWSGLPSLQMADEESRLSAYYNLLHCLRRDSHKIDNYLKLLKCRIIHNNNC |  |  |  |  |  |  |  |  |  |  |  | binding result [1]: binds |
| antibody HE06642 as IgG1 molecule (antibody, V domains shown) VH: EVQLVESGGGLVQPGGSLRLSCAVSGFTFSSYGMSWVRQAPGKGLEWVATVSSGGTYTYYPDSVKGRFTISRDNSKNTLYLQMNSLRAEDTAVYYCARHRGNYYATYYYAMDYWGQGTLVTVSS VL: DIVLTQSPDSLAVSLGERATINCKASKSVSTSGYTYMHWYQQKPGQPPKLLIYLASNRESGVPDRFSGSGSGTDFTLTISPVQAEDVATYYCQHSGELPPSFGQGTKLEIKR | 0.8 nM | 0.2 nM | 1.6 nM | 3.2 nM | 206 nM |  |  |  |  |  |  | IC50, inhibition of LHRE luciferase reporter gene activity in HEK293 cells stably transfected with human PRLR [5]: 4.6 nM; IC50, inhibition of prolactin-induced proliferation of BaF3 cells stably transfected with human prolactin receptor [5]: 4.2 nM; IC50, inhibition of LHRE luciferase reporter gene activity in HEK293 cells stably transfected with murine PRLR [6]: > 1330 nM |
| antibody HE06642 (isotype not stated) (antibody, V domains shown, Kappa light chain; also called he06.642-2 of WO 2008/022295) VH: EVQLVESGGGLVQPGGSLRLSCAVSGFTFSSYGMSWVRQAPGKGLEWVATVSSGGTYTYYPDSVKGRFTISRDNSKNTLYLQMNSLRAEDTAVYYCARHRGNYYATYYYAMDYWGQGTLVTVSS VL: DIVLTQSPDSLAVSLGERATINCKASKSVSTSGYTYMHWYQQKPGQPPKLLIYLASNRESGVPDRFSGSGSGTDFTLTISPVQAEDVATYYCQHSGELPPSFGQGTKLEIKR |  |  |  |  |  | 0.8 nM | 0.000533 s⁻¹ | 15 nM | 0.0091 s⁻¹ | 17 nM | 0.00579 s⁻¹ |  |
| antibody Mat3 in IgG1 format (antibody, V domains shown, also called Mat3 IgG1) VH: EVQLLESGGGLVQPGGSLRLSCAASGFTFSSYWMHWVRQAPGKGLEWVSDIARLSSYTNYADSVKGRFTISRDNSKNTLYLQMNSLRAEDTAVYYCARGLDARRMDYWGQGTLVTVSS VL: QSVLTQPPSASGTPGQRVTISCTGSSSNIGAGYVVHWYQQLPGTAPKLLIYRNNQRPSGVPDRFSGSKSGTSASLAISGLRSEDEADYYCAAWDDSLNGWLFGGGTKLTVLG | 0.4 nM | 0.1 nM | 0.8 nM | 1.2 nM | 4.6 nM |  |  |  |  |  |  | EC50 [12]: 0.2 nM; EC50 [13]: 0.1 nM; % inhibition of prolactin-induced proliferation at 1 µg/ml (=6.7 nM) [14]: 100%; IC50, inhibition of LHRE luciferase reporter gene activity in HEK293 cells stably transfected with human PRLR [14]: 0.5 nM; IC50, inhibition of prolactin-induced proliferation of BaF3 cells stably transfected with human prolactin receptor [14]: 0.7 nM; IC50, inhibition of LHRE luciferase reporter gene activity in HEK293 cells stably transfected with murine PRLR [15]: 1.3 nM; IC50, inhibition of prolactin-induced proliferation of BaF3 cells stably transfected with the murine prolactin receptor [15]: 3 nM |
| antibody Mat3 as human IgG molecule (isotype not stated) (antibody, V domains shown, Lambda light chain; also called neutralizing prolactin receptor antibody Mat3) VH: EVQLLESGGGLVQPGGSLRLSCAASGFTFSSYWMHWVRQAPGKGLEWVSDIARLSSYTNYADSVKGRFTISRDNSKNTLYLQMNSLRAEDTAVYYCARGLDARRMDYWGQGTLVTVSS VL: QSVLTQPPSASGTPGQRVTISCTGSSSNIGAGYVVHWYQQLPGTAPKLLIYRNNQRPSGVPDRFSGSKSGTSASLAISGLRSEDEADYYCAAWDDSLNGWLFGGGTKLTVLG |  |  |  |  |  | 1.3 nM | 0.000414 s⁻¹ | 0.4 nM | 0.000164 s⁻¹ | 9.6 nM | 0.00102 s⁻¹ | Kd [16]: 0.9 nM; koff [16]: 0.00044 s⁻¹; Kd [17]: 0.4 nM; koff [17]: 0.00021 s⁻¹; Kd [18]: 7.1 nM; koff [18]: 0.0011 s⁻¹ |
| antibody Mat3 as human IgG2 molecule (antibody, V domains shown, also called IgG2 Mat3) VH: EVQLLESGGGLVQPGGSLRLSCAASGFTFSSYWMHWVRQAPGKGLEWVSDIARLSSYTNYADSVKGRFTISRDNSKNTLYLQMNSLRAEDTAVYYCARGLDARRMDYWGQGTLVTVSS VL: QSVLTQPPSASGTPGQRVTISCTGSSSNIGAGYVVHWYQQLPGTAPKLLIYRNNQRPSGVPDRFSGSKSGTSASLAISGLRSEDEADYYCAAWDDSLNGWLFGGGTKLTVLG |  |  |  |  |  |  |  |  |  |  |  | EC50 [19]: 2.94 nM; EC50 [20]: 0.53 nM |
